The text below walks through data of PMC11199634.

The target in assay [1] is SDS22-KR7A (purified) (human) (UniProt Q15435). The assay can be described thus: ITC; 5 μM SDS22 in the cell titrated with 50 μM His-I3 (20 injections), 22 °C, MicroCal iTC200; binding curves not saturated. A general note: Isothermal titration calorimetry measures the heat released or taken up as one component is titrated into another.
In another assay the target is LgBiT-PP1α (UniProt P62136). As to the kind of experiment: lysate-based split-luciferase complementation. As to conditions: mixed HEK293T lysates; signals normalized for the same expression level; n = 3; parent: est. 100; read off a plot.
Chain of LgBiT-PP1α (P62136 whole entry, the tested form may be a part): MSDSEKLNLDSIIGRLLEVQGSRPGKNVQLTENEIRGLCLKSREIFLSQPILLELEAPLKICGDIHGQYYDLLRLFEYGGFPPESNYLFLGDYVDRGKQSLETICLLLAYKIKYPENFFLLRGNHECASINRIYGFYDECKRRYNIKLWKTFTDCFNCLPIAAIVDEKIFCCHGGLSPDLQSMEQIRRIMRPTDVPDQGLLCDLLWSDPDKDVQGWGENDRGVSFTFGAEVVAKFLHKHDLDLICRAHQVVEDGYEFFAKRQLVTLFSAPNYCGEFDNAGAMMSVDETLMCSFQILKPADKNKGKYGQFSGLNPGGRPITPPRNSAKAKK
A further assay concerns the target EGFP-I3-DE4A (human) (UniProt O60927). As to the kind of experiment: co-IP; EGFP-trap (anti-EGFP nanobodies on agarose, 2 h, 4 °C) of transiently expressed EGFP fusions from HEK293T lysates (20 mM Tris pH 7.9, 0.3 M NaCl, 0.5% Triton X-100); endogenous partners by immunoblot.

Chain of EGFP-I3-DE4A (human) (O60927 whole entry, the tested form may be a part): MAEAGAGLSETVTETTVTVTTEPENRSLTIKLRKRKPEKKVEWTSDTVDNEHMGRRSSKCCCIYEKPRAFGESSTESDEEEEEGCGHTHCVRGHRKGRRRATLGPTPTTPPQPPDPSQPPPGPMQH
Chain of His-I3 (O60927 whole entry): as the sequence (O60927 whole entry, the tested form may be a part) above
Chain of I3^WT-SmBiT (O60927 whole entry, change not shown): as the sequence (O60927 whole entry, the tested form may be a part) above
Chain of I2-SmBiT (P41236 whole entry, change not shown): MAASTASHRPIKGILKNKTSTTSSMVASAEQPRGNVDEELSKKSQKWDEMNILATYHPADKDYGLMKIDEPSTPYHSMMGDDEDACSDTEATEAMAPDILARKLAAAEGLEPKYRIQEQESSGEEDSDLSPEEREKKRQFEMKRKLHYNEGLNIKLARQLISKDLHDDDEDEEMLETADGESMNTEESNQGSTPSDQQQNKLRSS
Chain of PP1 (endogenous, HEK293T) (P62136 whole entry): as the sequence (P62136 whole entry, the tested form may be a part) above
Chain of SDS22-KR7A (purified) (human) (Q15435 whole entry): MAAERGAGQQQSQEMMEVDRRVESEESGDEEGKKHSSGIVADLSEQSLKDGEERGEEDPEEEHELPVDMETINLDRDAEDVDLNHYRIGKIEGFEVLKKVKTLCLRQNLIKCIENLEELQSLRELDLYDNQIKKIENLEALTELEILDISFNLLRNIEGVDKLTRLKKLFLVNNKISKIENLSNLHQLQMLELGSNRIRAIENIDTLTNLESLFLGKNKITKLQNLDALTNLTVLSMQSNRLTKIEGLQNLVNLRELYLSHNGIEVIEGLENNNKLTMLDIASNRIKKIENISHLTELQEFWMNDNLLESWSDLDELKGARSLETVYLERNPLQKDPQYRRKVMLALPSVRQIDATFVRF
Chain of RM-SmBiT (Q69YH5 whole entry, change not shown): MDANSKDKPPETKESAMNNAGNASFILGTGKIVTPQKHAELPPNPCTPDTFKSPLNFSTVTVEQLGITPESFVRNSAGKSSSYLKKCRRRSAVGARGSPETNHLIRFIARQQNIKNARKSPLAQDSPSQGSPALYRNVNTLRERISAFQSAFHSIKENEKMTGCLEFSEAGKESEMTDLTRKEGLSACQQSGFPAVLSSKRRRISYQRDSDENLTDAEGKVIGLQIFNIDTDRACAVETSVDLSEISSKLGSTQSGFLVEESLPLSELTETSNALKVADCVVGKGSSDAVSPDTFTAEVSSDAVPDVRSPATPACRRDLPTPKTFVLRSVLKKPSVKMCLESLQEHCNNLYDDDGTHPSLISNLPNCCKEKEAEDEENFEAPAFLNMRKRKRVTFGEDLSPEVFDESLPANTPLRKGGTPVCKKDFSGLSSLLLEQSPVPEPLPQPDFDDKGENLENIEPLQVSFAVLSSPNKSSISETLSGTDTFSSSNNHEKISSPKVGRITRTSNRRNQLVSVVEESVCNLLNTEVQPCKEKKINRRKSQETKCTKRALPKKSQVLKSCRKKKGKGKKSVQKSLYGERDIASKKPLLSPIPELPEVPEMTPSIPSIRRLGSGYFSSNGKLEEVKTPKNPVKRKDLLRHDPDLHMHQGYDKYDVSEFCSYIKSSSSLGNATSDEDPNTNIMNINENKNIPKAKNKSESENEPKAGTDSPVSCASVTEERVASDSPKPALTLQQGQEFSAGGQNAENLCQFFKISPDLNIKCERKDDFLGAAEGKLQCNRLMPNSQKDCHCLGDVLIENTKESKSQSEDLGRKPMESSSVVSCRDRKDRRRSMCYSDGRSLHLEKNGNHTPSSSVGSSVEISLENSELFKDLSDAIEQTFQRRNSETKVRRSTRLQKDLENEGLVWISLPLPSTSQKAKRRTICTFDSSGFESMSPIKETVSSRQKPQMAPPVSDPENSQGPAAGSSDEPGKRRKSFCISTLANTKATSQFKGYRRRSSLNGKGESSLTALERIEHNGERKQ

For the substance “His-I3 (from UniProt O60927 1-126) (natural protein)”, the Kd (in general, the equilibrium constant for the complex coming apart) in assay [1] came to 128 µM.

As for I2-SmBiT (from UniProt P41236) RATA, the percent of parent (% of RIPPOs^WT-SmBiT) with LgBiT-PP1α came out at 32.

In the case of I3^WT-SmBiT (from UniProt O60927) RATA, the percent of parent (% of RIPPOs^WT-SmBiT) with LgBiT-PP1α is 6.

Turning to “PP1 (endogenous, HEK293T) (from UniProt P62136 1-330) (enzyme)”, in the assay with EGFP-I3-DE4A (human), the percent decrease of binding against EGFP-I3-WT was found to be 35%.

RM-SmBiT (from UniProt Q69YH5) RATA: the percent of parent (% of RIPPOs^WT-SmBiT) with LgBiT-PP1α was determined as 10.
